Here are results for 16 sequences from the supplement of paper PMC9170038.

This series deals with MS2 coat protein. Briefly: apparent KD of MS2 coat protein; designed switch direction (-1 OFF switch, 1 ON switch): -1; higher = weaker reporter binding. The gist of the method: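 Designed RNA switches sharing common flanks were transcribed on Illumina chips by stalled E. coli RNA polymerase. They were titrated with SNAP-549-labelled MS2 coat protein, from 0.7 or 1.5 nM doubling to 3 µM, in Tris-HCl pH 7.5 buffer with KCl, MgCl2, BSA, DTT, tRNA and Tween-20. Titrations ran without input, with 200 uM small-molecule ligand, or with an oligonucleotide input. The apparent KD of each design is the median over its clusters, after curve-fitting of normalised cluster fluorescence.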

[1] abbreviates: Eterna round: R95, input ligand: microRNA oligo, concentration not stated.
Where [2] appears, read: Eterna round: R95, input ligand: FMN 200 uM.
Setting [3] is: Eterna round: R95, input ligand: none.

Turning to “GACUGCCGAGGAUAUACAUGAGGAUCACCCAUGUGCUUCAGCAUUUAAUAAUGCAUGGGUAGAAGGCGGUAGUC [LRO-Excl3-12] (puzzle: Exclusion 3)”, under setting [1], the “apparent KD of MS2 coat protein” value is 0.0405 µM.

On to “GACUGCCGAGGAUAUACAUGAGGAUCACCCAUGUGCUUCAGCAUUUUUUAAUGCAUGGGUAGAAGGCGGUAGUC [LRO-Excl3-13] (puzzle: Exclusion 3)”, for which the “apparent KD of MS2 coat protein” value under setting [1] was found to be 0.0296 µM.

For “GACUGGACGUGGUCUGGUUACAUGAGGAUCACCCAUGUAGGUCUAAGAACAUGCCUUUUGUACGCUCGUCUUAUAUA [JR_SV3TOV1_Sub065] (puzzle: Sensor v3, turn-off variant 1)”, the “apparent KD of MS2 coat protein” value came out at 0.0379 µM under setting [2], 0.0207 µM under setting [1] and 0.0396 µM under setting [3].

On to “GACUUCUCUGAGGAUAUUGCAUCAUACGAUAAAUAAGAAGGCAGAACAUGAGGAUCACCCAUGUGGGUUUCAAG [Bingo-Bango-34] (Eterna round: R97, puzzle: Exclusion 6)”, for which the “apparent KD of MS2 coat protein” value (input ligand: FMN 200 uM) stood at 0.17 µM and the “apparent KD of MS2 coat protein” value (input ligand: none) was found to be 0.0814 µM.

As to “GACUUCUCUGAGGAUAUUGCAUCAUACGAUAAAUAAGAAGGCAGAACAUGAGGAUCACCCAUGUGGGUUUUUAG [Bingo-Bango-32] (Eterna round: R97, puzzle: Exclusion 6)”, the “apparent KD of MS2 coat protein” value is, setting by setting: (input ligand: FMN 200 uM) 0.135 µM; (input ligand: none) 0.0686 µM.

Consider “GACUUCUGAGGAUAUACAUAGAUUUACAUGAGGAUCACCCAUGUUCCUCUAUGUAUAAAUGUAGAAGGCAGAAGAU [Mat - Exclusion 5 - JL Mod - D66] (Eterna round: R97, puzzle: Exclusion 5)”, for which the “apparent KD of MS2 coat protein” value is 0.0738 µM (input ligand: FMN 200 uM) and 0.0132 µM (input ligand: none).

Regarding “GACUUGUCAGGAUAUCUUACAUUAACAUCGUAGUUACCGUUGGAGAAGGGACAUGAGGAUCACCCAUGUUUGGC [tap-tap-tappy25] (Eterna round: R97, puzzle: Exclusion 4)”, the “apparent KD of MS2 coat protein” value came out at 0.0418 µM (input ligand: FMN 200 uM) and 0.0287 µM (input ligand: none).

Consider “GAGAAACAUGAGGAUCACCCAUGUAAGGAUAUGGCGAGAGCUGGAGUACUAGCGCCGUUCAGAAGGUACAUGAG [Eternabot (L2) Solution 27] (Eterna round: R97, puzzle: Exclusion 1)”, for which the “apparent KD of MS2 coat protein” value was 0.218 µM (input ligand: FMN 200 uM) and 0.0959 µM (input ligand: none).

As for “GAGAACUGAGGAUAUACAUGAGGAUCACCCAUGUUAAGAAGAUAGUAUUGAUGGUUCUGUAGAAGGCAGAGAGA [JR_Ex3_Sub066] (Eterna round: R97, puzzle: Exclusion 3)”, the “apparent KD of MS2 coat protein” value worked out at 0.0345 µM (input ligand: FMN 200 uM) and 0.0308 µM (input ligand: none).

With “GAGAAGGUAGGAUAUACGAAGAAAGAGGGUAGGAAUAAGACACAUGAGGAUCACCCAUGUAGAAGGACCAAGAG [Mat - Exclusion 2 - Mod of my Tesla design - D49] (puzzle: Exclusion 2)”, the “apparent KD of MS2 coat protein” value is 0.0324 µM under setting [2], 0.0212 µM under setting [1] and 0.0229 µM under setting [3].

Turning to “GAGAAGUGAGGAUAUGCGAUAAGGAUGAAAGGAAGGAAUGAGUAGAAGGCACAUGAGGAUCACCCAUGUAGAGU [JR_Exclu4_Sub080] (puzzle: Exclusion 4)”, the “apparent KD of MS2 coat protein” value is, setting by setting: under setting [2], 0.0253 µM; under setting [1], 0.0213 µM; under setting [3], 0.021 µM.

For “GAGAGACGAGGAUAUGCAGGAGUGCAGUCAGGUUCCAAAAUACAUGAGGAUCACCCAUGUAGAAGGUGUCAUCU [Eternabot (L2) Solution 26] (Eterna round: R97, puzzle: Exclusion 2)”, the “apparent KD of MS2 coat protein” value by setting is: (input ligand: FMN 200 uM) 0.0166 µM; (input ligand: none) 0.0156 µM.

Consider “GAGAGAGACAUAGGAUAUUCACCCACACAUGAGGAAGAAGGAUGUAGACAUGAGGAUCACCCAUGUGGAUCACCCAUGUUUGUG [All by luck] (Eterna round: R96, puzzle: Exclusion NG 1)”, for which the “apparent KD of MS2 coat protein” value is 0.022 µM (input ligand: FMN 200 uM); 0.0121 µM (input ligand: microRNA oligo, concentration not stated); 0.0247 µM (input ligand: none).

For “GAGAUACAUGAGGAUCACCCAUGUGAGGAUAUGAGCACGCCGGUGACGGUGAUAAGAAUCAGAAGGCACAAUGG [Mat - Exclusion 1 - JL Mod - D31] (Eterna round: R97, puzzle: Exclusion 1)”, the “apparent KD of MS2 coat protein” value runs as follows: (input ligand: FMN 200 uM) 0.339 µM; (input ligand: none) 0.453 µM.

As to “GAGAUGUGAGGAUAUCUAGACCGCGAAAGAGCCGCGGUCCGAGAGAAGGCACAUGAGGAUCACCCAUGUGAUGA [Tiesri] (puzzle: Exclusion 4)”, the “apparent KD of MS2 coat protein” value under setting [1] was 0.0394 µM.

Consider “GAGCAGUGAGGAUAUACAUGAGGAUCACCCAUGUAAUGGUAGUCGGGAUUAAUUUGGUGUAGAAGGCGCUUAUU [JR_Ex3_Sub021] (Eterna round: R97, puzzle: Exclusion 3)”, for which the “apparent KD of MS2 coat protein” value was determined as 0.064 µM (input ligand: FMN 200 uM) and 0.0799 µM (input ligand: none).
